For one substance, EA (acceptor-centric FRET efficiency), ED (donor-centric FRET efficiency) and stoichiometry N results are on record in article PMC6886297.

In assay [1] the target is YFP‐labeled Bcl‐xl (UniProt Q07817). The assay is described as follows: FRET or BRET; live-cell FRET two-hybrid assay (E-FRET and 3^3-FRET) in HeLa cells coexpressing CFP-Mff and YFP-Bcl-xl, 50 µM Z-VAD-FMK; cytoplasm of cells with filamentous Mff and Bcl-xl distribution (ROI 1). A general note: BRET reads energy transfer from a luciferase to a nearby fluorophore.
UniProt Q07817, sequence (Q07817 whole entry, the tested form may be a part): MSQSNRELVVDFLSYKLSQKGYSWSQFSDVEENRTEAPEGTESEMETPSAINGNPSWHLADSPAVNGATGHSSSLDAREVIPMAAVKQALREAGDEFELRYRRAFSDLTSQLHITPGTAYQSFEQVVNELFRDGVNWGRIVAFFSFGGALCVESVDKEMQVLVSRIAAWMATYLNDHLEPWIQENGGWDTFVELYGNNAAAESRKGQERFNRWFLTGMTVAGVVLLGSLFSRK
Assay [2] has the same target. The assay is described as follows: FRET or BRET; live-cell FRET two-hybrid assay (E-FRET and 3^3-FRET) in HeLa cells coexpressing CFP-Mff and YFP-Bcl-xl, 50 µM Z-VAD-FMK; fragmented mitochondrial region of cells with punctate distribution (ROI 4).
Assay [3] shares this target. The assay is described as follows: FRET or BRET; live-cell FRET two-hybrid assay (E-FRET and 3^3-FRET) in HeLa cells coexpressing CFP-Mff and YFP-Bcl-xl, 50 µM Z-VAD-FMK; cytoplasm of cells with punctate Mff and Bcl-xl distribution (ROI 3).
Assay [4] shares this target. The assay is described as follows: FRET or BRET; live-cell FRET two-hybrid assay (E-FRET and 3^3-FRET) in HeLa cells coexpressing CFP-Mff and YFP-Bcl-xl, 50 µM Z-VAD-FMK; tubular mitochondrial region of cells with filamentous distribution (ROI 2).

On to “CFP‐labeled Mff (mitochondrial fission factor) (from UniProt Q9GZY8 1-342) (natural protein)”, for which the EA (acceptor-centric FRET efficiency) with YFP‐labeled Bcl‐xl [1] amounted to 0.151; with YFP‐labeled Bcl‐xl [2], 0.115; in the assay with YFP‐labeled Bcl‐xl [3], 0.072; with YFP‐labeled Bcl‐xl [4] it was 0.071. Moreover, the ED (donor-centric FRET efficiency) amounted to 0.086 with YFP‐labeled Bcl‐xl [1], 0.109 with YFP‐labeled Bcl‐xl [2], 0.041 with YFP‐labeled Bcl‐xl [3] and 0.067 in the assay with YFP‐labeled Bcl‐xl [4]. In addition, the stoichiometry N with YFP‐labeled Bcl‐xl [1] is 0.586 Bcl‐xl/Mff; with YFP‐labeled Bcl‐xl [2], 0.924 Bcl‐xl/Mff; in the assay with YFP‐labeled Bcl‐xl [3], 0.643 Bcl‐xl/Mff; in the assay with YFP‐labeled Bcl‐xl [4], 0.97 Bcl‐xl/Mff.

The term stoichiometry N denotes the number of molecules, sites or subunits per partner or assembly.
